Test: soluble on expression in E. coli; label from the status in PepcDB or PDB records

Sequence	soluble on expression in E. coli
MGKDSKKHKKERRRERSPSTSDSDEERLQKRLAEQRSLKKDEKRRQKEEMKKNESAEEKRARRMEKKMRKDAKRKDADAEDTLIPPELNYTNLNNPFNDTKLTQTFVWGKKLEREGKSGLTQDEITKQTSQRIRKNLHEAAEFKRIRDSRAAAKEDMEMMKRDADLRAGQISDTKEREFQMDQIKERTRIRIDQGRAKAIDLLSRYARFADENPHTAKIPDFELENPMEYLKASCKSVDDYEDLIEDIKTYREVDGWAKNETWWMDVTRIAEDEIQKKAAQNRGDVHASVQTEVQNMFKNKSIDELLKLEDQMDAKIRGNSGNKGYWQDLDDQLKVFIARKRLREHHGRVLRLQLAIIKEEQKKEIQQQESEELLPVAEVPPQVKIQKEEEEEEEEDEDDEKISKKVRRKIDVQTLDDPELDEPERERKWRALTGDQLDDVTRELYRIGCYRFSIFFLAEKPPTYISADDTMPGIEILDEQADVDNLTERRNRNRGTLPSSSAASSGAPQGASSKMMAIAREGMEADESIFGAEEQLAAQRHLWSDKYRPRKPTYLNRVQTGFDWNKYNQTHYDQDNPPPKIVQGYKFNIFYPDLLDMTVAPRFGLTSCEDPDFAIIRFKAGPPYEDIAFKVVNREWETLHKNGYKCQFQNGVFQLWFMFKKYRYRR	soluble
MTKSKIIEIGPLVPAFEEEKIVILFGPTATNELREISVIHEFEAAPQSALSKGNTLQIGDQVYIIEEVGTEANKNLEELGHISIYFRSGQNEVLPGAIVVSPEVFPTLAIGDTIQ	not soluble
TIVDLEDNVLVIGFGRFSQIVCQTLLIRGISVSVIDRNIENIRAAAKFGFKVYYGDGIRLDVLRAAGIEKAKCVVLGINDTQRIEHIVSQMKEAYPNLPILTRTYDRKTTVSLIKQDVDFIVRETFESAITLSRATLMKLGID	not soluble
MLTCTVDTQFGRLTLREEAGALVSVSWGSAAREDASELLQRASLQVSEYDQGARQQFDLPVRIRGSAFQRAVCDAICAIPFGDTCTYGDIARALGVPAQAVGQACGANPIPIIIPCHRVMGAKGLTGFSGVGGVETKVALLRHEGAAGLLILEHHHHHH	not soluble
RALCDEDMKKVFTRLPSSSAIPLAVRRAQDMFVLMFLLRGLPFVDLAYLRKSDLRDNVITYRRRKTGRPLSVTLTPEALELLKKYMNRDSHSPYLFSLLKSGEGTKEAYREYQLALRSFNQQLTLLGEVLGLNDKLSSYTARHTWATTAYYCEIHPGIISEAMGHSSIKVTETYLKPFRNKKIDEANNQIIDFVKHSIAGVVS	not soluble
MSLQSLIGLMRPETGKKLENLNHFIQQFEKVLIAFSGGVDSSTLAAVCSNAGVEVLAVTVLSSVSPRREMEEAKRIAEELGVRHEFLKIDLMDEDFRRNDENRCYYCKRRVLSALVEEAKKRGIEVVLEGTNASDLSDHRPGYRAVRELDGVNSPWVEFGITKEEIREIARSMGYSFHDKPSMACLASRIPFGIEIDEEKLKMVDEAEEAVIELAGVKQVRVRNYDGVAVVEVAGDELRKLLNCAEKVRDKLKKIGFRAVLIDLEGYRSGKRLFKFEGHHHHHH	soluble
MGSDKIHHHHHHMSNNIFTVYGEVPELVEKKTKEIVNDYLGQKIDDFNYVKYNLYESDLTPIIEETLTMPFFSNKKAIVVKNSYVFTGEKFSKDLNHNSDELIKFLEKYDGENLIIFEVYQPKLDERKKLTKTLKKNAQLKKIEQMSEKELKHWIKNTLNNNYKDIKQDALELFIELTGVNYNIVSQELEKLILFIGERPIINKDDIDLIINRSLEQNVFLLTEYIQKGNKNKAIQLVNDLIIMKEEPIKLLALITSNYRLYYQCKILSQKGYSGQQIAKTVNAHPYRVKLALNQSRHYKLESLFNIINACAETDYKLKSSYMDKQLILELFILSL	not soluble
MKAHHILKVTKQYNPTEDLEFNPDLDGELVAGADNLPSVEIQVEKIADRQRQITARVQIPQPVEQVWQVLTNYEALADFIPNLAKSSLLEHPNGGIRLEQVGSQRLLNFKFCARVVLDLEEYFPKEINFQMVEGDFKGFSGNWCLQPYALGNVIGTDLCYTIQVWPKLTMPITIIERRLSQDLRSNLLAIYQRVECLANQSLLEHHHHHH	soluble
MSLTGQLHPAVRVADLLQHINQMKTAEGYGFKQEYESFFEGWDATKKKDKVKGSRQEPMPAYDRHRVKLHPMLGDPNADYINANYIDGYHRSNHFIATQGPKPEMVYDFWRMVWQEHCSSIVMITKLVEVGRVKCSRYWPEDSDTYGDIKIMLVKTETLAEYVVRTFALERRGYSARHEVRQFHFTAWPEHGVPYHATGLLAFIRRVKASTPPDAGPIVIHCSAGTGRTGCYIVLDVMLDMAECEGVVDIYNCVKTLCSRRVNMIQTEEQYIFIHDAILEACLCGETTIPVSEFKATYKEMIRIDPQSNSSQLREEFQTLNSVTPPLDVEECSIALLPRNRDKNRSMDVLPPDRCLPFLISTDGDSNNYINAALTDSYTRSAAFIVTLHPLQSTTPDFWRLVYDYGCTSIVMLNQLNQSNSAWPCLQYWPEPGRQQYGLMEVEFMSGTADEDLVARVFRVQNISRLQEGHLLVRHFQFLRWSAYRDTPDSKKAFLHLLAEVDKWQAESGDGRTIVHCLNGGGRSGTFCACATVLEMIRCHNLVDVFFAAKTLRNYKPNMVETMDQYHFCYDVALEYLEGLESREGHHHHHH	soluble
GPGSMGKYAAVIIGPAGSGKSTLCGVLAEHYATMGRSTHIANMDPAADLLPYEPSMDIRDLISLEDAMEGKGLGPNGGLVFCMEYLVTAGATWVSQQLGDYADDFIIVDMPGQVEVLSNQPAVPAFVRLLQQEGYYTTVLYLLDALATTADSGKFISGCMFSLSSMVCFDCPFINVLTKCDLLSKDFKENGMLEHFCMCDFDYMDLSRLPPRFRAMSRQIGALLTDFNLVTFRPVDIEDVGYVSNLCSVLDETLQVADEAEVQDHDLGDN	soluble
MGSDKIHHHHHHMQFLDDSLHPENQDKVVITVAPYGPEWMPQDFPEDIPVTMEEQVQKAVDCYNAGATVLHLHVRELDGKGSKRLSKFNELIAGVRAAVPDMIIQVGGSISFAPEDDGQAAKWLSDDTRHMLADLDPKPDQVTVAINTTQMNIMELLYPEYLEGTSLSHPAYVEAYREMTVPAGPGWVEEHLRRLSNAGIQPHFQLTGIHAMETLERMVRAGKYKGPLNLTWIGIGGGFDGPNPFNFVNFVHRAPDGCTLTAESLLKNVLPFNMMAMAMGLHPRCGIEDTIIDQHGNRMTSVQQIEQCVRVARELGREIASGKEAREIYRIGTWYDSAEETLEAHGMAPNRKAGQKNLPLRKAA	not soluble
MSQRVSYYEIAPEGMKIMMDMEKYTKQSSINRTTRELIKIRVSQMNGCAFCIDMHTSDARKMGETEQRIYCLHAWNECDFYSPEEKAALELSEHITLIPSKRVPDELYHRVREHYDEEQYVDLVLIINQINSWNRISIAMGNRAASK	soluble
MSLILYDYFRSTACYRVRIALNLKKIAYEKIEVHLVNNGGEQHSLQYHQINPQELVPSLDINGQILSQSMAIIDYLEEIHPEMPLLPKDPFMKATLKSMALIVACDMHPLNNLRVLNRLKEQFNANEEQVLEWYHHWLKTGFDAFEEKLGALERDKPVCFGSEVGLADVCLIPQVYNAHRFHFDMASYPIINEINEYCLTLPAFHDAAPEAISSEGHHHHHH	soluble
MGSDKIHHHHHHMPTYDAVIVGSGINSLVCAAVLARSGKRVCVLERNSTLGGCIRTEALHAPGYLHDTLSTAHPLFVTSPGYAELKDDLHQAGLSYANNDTPTGVLLPGNRSLILATSRERNVSAFNALASGDGDAYLAAMQEVEQNAGLVFSLLGNELWSADVAKTVAGRLWKQGVHDTVAFFSPALMSCRSWLETRIRSDLVRALLAPWVLHTGLGPESAMSALMGKVVAFSLEAVGLPIVQGGNARTVEAFRQIVESHGGAFHVNADVEDVLVENGSARGVRTRDDRVFMGKEIICNVTPGQLYGKLLAPAHVPPALRQQAAEYRYGKGNMQIHLSLSAPPDWPHAHLRNVIYLHLTSGLDGVSRAVSEAERGLLPAEGTICVAQPCAVDPSRSPAGGWVLWIQVPECPRTIKGDALGEIDAPADGRWTPEIRERYADRIIDRIARQVPNLKASIVGRTVLSPADLEAMNINLVGGDPYSGECSIDQFMVWRPLRGARNHATPVKHLHHIGASTHPGPGLGGTSGYHVANALARKRAKSNRT	not soluble
MSLSIQRILFPTDFSDGARRAFPQAAHLADWHDAGLHILNVTGRHRHDHEETTANFPIATDTLTKWLRRPEKSVRGANWPDLEALPITQEQVESAEPAERILAYAEDEAIDLIVMGTHGRRGVDRMLFGSVTEEVVRKAPCPTLTVRADADVAPDQAVRRVLAPVDFSDASRSAVRHAKEIALTYGAEIDLLHVVEEPFYPPAYGLGETGFPTDKVIGSVEDELADLARSEVGYEHVMIEARTGEPSREILNYIDENEVDLTVIASHGRTGLDRMLIGSVAERVVRQSPTPVFVAKPDRAALVSSDAAEGHHHHHH	not soluble
MDPVFSRLLETANSVILGKEQPIRLCICCLLARGHLLIEDVPGVGKTTLARTLAALLGLKYQRIQFTSDLLPADVLGSSIYDATTHGFRFHPGPVFNPMVLADEINRSTPRAQSALLEAMEERQVTVEGETRPLPEPFFVIATQNPNTQIGTFPLPESQLDRFLMRIELGYPDPRAERELLMGEERYALLPQLPVCLPAERLLALQSRVRDVHASSALLDYVQALLHFSRESPLYQNGLSPRAGLALLHAAKAWALMDGRAAVLPEDIQAVLPPVAGHRLKLASGGGGMAETVAPLLRDVAIPLEHHHHHH	not soluble
MSKLEELDIVSNNILILKKFYTNDEWKNKLDSLIDRIIKAKKIFIFGVGRSGYIGRCFAMRLMHLGFKSYFVGETTTPSYEKDDLLILISGSGRTESVLTVAKKAKNINNNIIAIVCECGNVVEFADLTIPLEVKKSKYLPMGTTFEETALIFLDLVIAEIMKRLNLDESEIIKRHCNLL	soluble
MGSDKIHHHHHHMKQTILDVDLLAFEQGTRFQQAAVVDGLMRSLGTGFVVTTSDLPSALLDEAYGMLNRFFALEATTKRQFNVPEAFGQTGYTDTLVETAAGEKLPDWKEMLNWAFPLPDNHPLRQRFPTLYPEQLLPEVAVPGITRVLQTFHQTIAELQCRVLRIIATGLGCHNDFFTDLVQDAPTLTRAIRYPPMSEAPAAGHMWAAAHGDINLITALPRATAPGLQVYIDGSWVDAIAPEGQVIVNSGLMLERISNGLIPTGWHRVLAPSQANLERLSVVQFCHPKPSTLLTPLSNCVNESHPQRFAGVMAADALEEVLYKIKLMA	not soluble
MVATAKYGTPVIDGEIDEIWNTTEEIETKAVAMGSLDKNATAKVRVLWDENYLYVLAIVKDPVLNKDNSNPWEQDSVEIFIDENNHKTGYYEDDDAQFRVNYMNEQTFGTGGSPARFKTAVKLIEGGYIVEAAIKWKTIKPTPNTVIGFNIQVNDANEKGQRVGIISWSDPTNNSWRDPSKFGNLRLIK	soluble
MPPRKIKKDPAVVAMADTLETRVKDLLEEYKKKLREVALQTAKAESDRIIATIKPKYRDMPIMEFLASPPDDFYIESGEEEEEGEAAVAVKQELPSEPDMEIDDAAAAQKTSIPIGQNSGRNTVQVKQEPEIDDDAAHETSIPIAPSGQNSGRNTAADEHRRNEIITPAGQVLPLPTLQPEKPFRAPHVDEEIAFSVNGSPLVLAGRTTATAAGKENRKKSKKSGAASKKAAAAAGPLQPETENAGTSV	not soluble
MAEHPIQGLMETAMESIKEMVDVNTIVGDAVQAPDGTVIIPISKVTFGFAAGGGEFASCCSVDEKGEDSSDDSSKPEIKFPFAGGSGAGVSINPVAFMVVGQGQIKLLPVNINSSLEKILDLIPEIIEKTKDSVKKNLKVKKEIKPGNGESCAKSSKEDENELEHHHHHH	soluble
NIQYEERVSVQADLGSQTLHVRGLIDSGNQLYDPLTKTPVMIIYIDKLEPIFGTAETMIIRNTDPLEAIEQLDDSFRFLDKMRLIPYRGVGQQNQFLLCVKPDHVTIMTKEEMISADKCLIGISTTKLSADGEFDAIIHPKMLSGKAVKH	not soluble

From the DeepSol protein solubility set
